Reference: paper PMC7145681 (Nucleic Acids Research, 2019)
Read-outs that look alike come from different tables or passages of the source.

What was measured:
SP_0782 [1] = target: T1, SP_0782 (Streptococcus pneumoniae, UniProt A0A0H2UPA7 7-79); test: X-ray crystallography
SEC-MALS = target: the molecule itself; test: SEC-MALS
SP_0782 [2] = target: T1, SP_0782; test: ITC
SP_0782 [3] = target: T1, SP_0782; test: ITC; remark: listed apart in the source

TCTTCC (ssDNA) [dTCTTCC]: binds (SP_0782 [1]).

B1: SP_0782 (7–79) W30A mutant (domain or fragment, Streptococcus pneumoniae, UniProt A0A0H2UPA7 7-79, looked up)
chain: KKMAEFTFEIEEHLLTLSENEKGATKEINRVSFNGAPAKFDIRAWSPDHTKMGKGITLSNEEFQTMVDAFKGN
In the case of B1, the “stoichiometry N” value (SEC-MALS) is reported as 2.

B2: SP_0782 (7–79) wild-type from Streptococcus pneumoniae (domain or fragment, UniProt A0A0H2UPA7 7-79, looked up)
chain: KKMAEFTFEIEEHLLTLSENEKGWTKEINRVSFNGAPAKFDIRAWSPDHTKMGKGITLSNEEFQTMVDAFKGN
In the case of B2, the “stoichiometry N” value (SEC-MALS) is reported as 2.

With TTTTTTTTTTTT (ssDNA) [dT12] the Kd (SP_0782 [2]) was 0.0206 µM.

TTTTTT (ssDNA) [dT6] showed a Kd (SP_0782 [3]) of 26.8 µM.
